Measured values published in the nanobody polyreactivity screen of Harvey et al. (2022).

Test: yeast display, Sf9 membrane polyspecificity reagent, FACS + sequencing; frameworks hold sequencing errors
Method in brief: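 After 36–48 hours of galactose induction, yeast (Saccharomyces cerevisiae BJ5465) displaying a synthetic nanobody library were stained at 4 °C for 1 hour with 10% biotinylated, detergent-solubilized Sf9 membrane reagent. Streptavidin microbeads enriched the stained cells before FACS sorting into low and high (top ~1%) gates on anti-HA and streptavidin fluorescence. Each clone's polyreactivity label reflects its gate of origin.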

| Sequence | polyreactivity (PSR sort gate) |
| --- | --- |
| QVQLVESGGGLVQAGGSLRISCAASGSTFVRNAMGWYRQAHGKERELVAAISVDGSSTYDADSVKGRFTISRDNAKNTVYLQMNSLKREDTAVYYCNADWEYRDFYDITYDYWGQGTQVTVSS | low polyreactivity |
| QVQLVESGGGLVQAGGSLRISCAASGSTFWYYAMGRYREAPGKERELVAAIRRGGSTYYADSVKGRFTISRDNAKNTVYLQLNSLKPDDTAGYYCAAERPYKTFGYGDWGQGTQVTVSS | high polyreactivity |
| QVQLVESGGGLVQAGGSLRISCAASGSTFYIYAMGWYRPAPGKERELVAAIRRSGGSTYYADSVKGRFTISRDNAKNTVYLQMNSLKPEDTAVYYCATRYLWRPRPYDYWGQGTQVTVSS | high polyreactivity |
| QVQLVESGGGLVQAGGSLRISCAASGSTLRRYAMGWYRQAPGKERELVAAISGSGDSTYYADSVKGRFTISRDNAKNTVYLQMNSLKPEDTAVYYCNAVYAFNGYDYWGQGTQVTVSS | low polyreactivity |
| QVQLVESGGGLVQAGGSLRISCAASGSTVHYMAWYRQAPGKEREMVAGISWSGGSTYYADSVKGRFTISRDNAKNTVYLQMNSLKPEETAVYYCAADHFNYTSGRDYWGQGTQVTVSS | low polyreactivity |
| QVQLVESGGGLVQAGGSLRISCAASGYIFRFNAMGCYRPAPGKERELVAVITSGARTYYADSVKGRFTISRDNAKNTVYLQMNSLKPEDNAVYYCNAGARRYLYDYWGQGTQVTVSS | low polyreactivity |
| QVQLVESGGGLVQAGGSLRISCAASGYTFKNNTMGWYRQAPGKERELVAAISVSGGSTYYADSVKGRFTISRDNAKKTVYLQMNSLKPEDTAVYYCTALREVPLFLVYIGGCYWGQGTQVTVSS | low polyreactivity |
| QVQLVESGGGLVQAGGSLRISCAASGYTFYSNAMGWYRQAPGKERELVASIRSRGRSTYYADSVKGRFTISRDNAKYSVYLQMNSLNPEDTAVYYCAALRNKPAVYAYDYWGQGTQVTVSS | low polyreactivity |
| QVQLVESGGGLVQAGGSLRISCAPSGGILYHYVMGWYRQAPGTERELVAAISRAGRTYYADSVKGRFTISRDNAKNTVYLQMNSLKPEDTAVYYCNAYFRYFYWGLGTQVTVSS | high polyreactivity |
| QVQLVESGGGLVQAGGSLRISCAPSGIIFEYYALGCSRQAPGKEREVVAAIFSGGSTYYADSVKGRFTISRDNAKNTVYLLMNSLKAEDNAVYYCAAEYLAWGQGTQVTVSS | high polyreactivity |
| QVQLVESGGGLVQAGGSLRISCAPSGLIFKYNAMGWYRQAPGKERDLVADINRSGGSTYYADSVKCRFTISRDNAKNTVYLQMNSLKPEDTEVYYCAAERDSLYWVLFGYWGQGTQVTVSS | low polyreactivity |
| QVQLVESGGGLVQAGGSLRISCASSGSTFGYYAIGWYRQAPGKESELVAAIRRSGGRTYYADSVKGRFTISRDNAKNTVYLQLNSLKPEDTAVYYCAKDGYSRRNSQKTPYDYWGQGTQVTVSS | low polyreactivity |
| QVQLVESGGGLVQAGGSLRISCDASGSTFSRYTLGWYRQAPVKEREMVAAISYRGGSTYYADSVKGRFTISRDNAKNTVYLQMNSLKPEDSAVYYCNADVPRIPYPDMEYWGQGTQVTVSS | low polyreactivity |
| QVQLVESGGGLVQAGGSLRITCAASGSILFAKSMGWYRQAPGKERELVADIRGSGSTYYADSVKGRFTISRDNAKNTVYLQMNSLKPEDTAVYYCAKRHLISIPDYGRHEYYYWGQGTQVTVSS | low polyreactivity |
| QVQLVESGGGLVQAGGSLRKSCAASGRIFGINAMGWSRQAPGNERELVAAITWGVGSTYYADSVKGRFTISRDNAKNTVYLQMNSLKPEDTAVYYCAKRRYYGYGGDYWGQGTQVTVSS | high polyreactivity |
| QVQLVESGGGLVQAGGSLRKSCAASGRIFSANAIGWYRKAPGTEWELVAAITCSGGSTYYADSVKGRFTISRDTAKNTVYLQMHSLKPEETAVYYCAAESAAYGGGTSDAGYESDYWGQGTQVTVSS | low polyreactivity |
| QVQLVESGGGLVQAGGSLRLAVLPPDLPSTLNDRGWYRQAPGKESELVAAITSGGNTYYADSVKGRFTISRDNAKNTVYLQMNSLKPEDTAVYYCAATYYWAWGGVYHSEFDYWGQGTQVTLSS | low polyreactivity |
